Laboratory results: patent US20060270591A1, “Androgen receptor coregulators” (priority 2002, published 2006)

Biological target: T1, AR N-terminus and AR C-terminus (Homo sapiens, UniProt P10275)
T1 construct: AR DBD plus LBD (GST-AR-DL); expressed in transfected cells; host or cells: PC-3 cells (human prostate cancer line)
T1 sequence (P10275 555-920 limits assumed): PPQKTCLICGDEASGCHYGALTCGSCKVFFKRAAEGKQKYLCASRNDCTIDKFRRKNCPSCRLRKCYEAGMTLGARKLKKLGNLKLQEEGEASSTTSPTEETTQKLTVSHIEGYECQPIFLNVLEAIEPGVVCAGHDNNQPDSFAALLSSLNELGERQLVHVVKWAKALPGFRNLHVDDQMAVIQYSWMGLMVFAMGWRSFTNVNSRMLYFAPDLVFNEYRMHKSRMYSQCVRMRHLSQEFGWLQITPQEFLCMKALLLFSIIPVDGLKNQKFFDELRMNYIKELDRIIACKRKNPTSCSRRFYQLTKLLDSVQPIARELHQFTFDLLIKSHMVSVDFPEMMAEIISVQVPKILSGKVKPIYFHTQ
T1 sequence (P10275 1-559 partner limits assumed): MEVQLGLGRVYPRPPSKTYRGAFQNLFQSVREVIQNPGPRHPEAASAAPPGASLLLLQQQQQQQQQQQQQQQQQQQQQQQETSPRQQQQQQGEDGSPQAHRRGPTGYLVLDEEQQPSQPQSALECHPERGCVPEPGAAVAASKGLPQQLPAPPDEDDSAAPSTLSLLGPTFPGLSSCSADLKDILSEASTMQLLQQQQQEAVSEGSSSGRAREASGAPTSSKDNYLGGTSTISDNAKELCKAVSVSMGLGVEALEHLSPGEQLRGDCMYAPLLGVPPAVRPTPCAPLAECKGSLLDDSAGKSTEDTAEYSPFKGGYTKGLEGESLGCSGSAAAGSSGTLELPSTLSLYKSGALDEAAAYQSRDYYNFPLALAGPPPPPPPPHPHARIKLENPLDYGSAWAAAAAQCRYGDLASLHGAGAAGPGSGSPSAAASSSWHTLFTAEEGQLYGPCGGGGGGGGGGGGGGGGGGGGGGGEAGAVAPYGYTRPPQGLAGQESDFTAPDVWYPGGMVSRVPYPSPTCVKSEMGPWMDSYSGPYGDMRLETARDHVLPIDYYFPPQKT
Experiment: Mammalian two-hybrid assay of AR N-C interaction in PC-3 cells
Assay type: cell-based
Settings: DHT
Protocol: 44. […] PC-3 cells were transfected with 30 ng plasmids expressing Gal4(DBD)-AR-DL, VP16 or VP16-ARN combined with 1.5 μg pSG5, pSG5-bSV, -ARA55, or -SRC-1α as indicated. The reporter plasmid pG5-Luc (0.5 μg) and control plasmid pRL-Luc (1 ng) were transfected to every sample. The assay was carried out as described in FIG. 29C.
474. Mouse myoblast cell line (C2C12), human prostate cancer cell lines (PC-3 and DU145), and monkey kidney fibroblast cell line (COS-1) were maintained in Dulbecco's minimum essential medium (DMEM) containing penicillin (25 units/ml), streptomycin ([…]), and 10% fetal bovine serum (FBS). In mammalian two-hybrid assay, transfections were performed using the calcium phosphate precipitation method as described previously (15). Briefly, 1.5-3×10^5 cells were plated on 35-mm dishes for 24 h, and the medium was changed to DMEM containing 10% charcol-dextran stripped FBS (CD-FBS) 2 h before transfection. Cells were transfected with 0.5 μg plasmids expressing Gal4(DBD) and VP-16 fusion proteins as indicated. Gal4 response element controlled Firefly luciferase expression plasmid, pG5-Luc, was used as reporter gene. A Renilla luciferase expression plasmid pRL-SV40 was used as an internal control for transfection efficiency. The total amount of DNA was adjusted to 5 μg with pCMX-VP16 vectors. […]

SV: supervillin, 205 kDa actin binding protein; bovine SV (a.a. 1-1792) used in reporter assays
effect on AR N-C interaction: mild suppressive effect
